Here are results for 3 molecules from publication PMC3935999, “Post-Translational Modifications Modulate Ligand Recognition by the Third PDZ Domain of the MAGUK Protein PSD-95” (PLoS ONE, 2014).

In assay [1] the target is KKETAV hexapeptide (optimised consensus C-terminal ligand of PSD-95 PDZ3). Kind of assay: ITC (MicroCal ITC-200). The settings on record: pH 7.5, 25 °C, no added salt stated (50 mM potassium phosphate only).
The target is the same in assay [2]. Description: ITC (quoted from ref. 19, Saro et al. 2007). The settings on record: pH 6.0, 25 °C, 10 mM NaCl, 20 mM MES; cited from earlier work.
For assay [3], the target named is CRIPT (Homo sapiens). Kind of assay: ITC. The settings on record: cited from earlier work.
In assay [4] the target is CRIPT (Homo sapiens). Kind of assay: ITC. The settings on record: cited from earlier work. The source holds these as a separate data set.
Another assay addresses KKETAV peptide. Kind of assay: ITC. The settings on record: cited from earlier work.
Assay [5] deals with CRIPT (Homo sapiens). Description: ITC. The settings on record: cited from earlier work. This is another data set of the same source.
Assay [6] concerns the target T1, PDZ3 domain of PSD-95 (wild type, residues 302-403) (UniProt P31016 302-403).
T1 construct: Postsynaptic density protein-95 (PSD-95; SAP-90; DLG-4), third PDZ domain with the α3 helix, residues 302-403 of the full PSD-95 protein; PDB 1BE9 is a longer construct of the same domain; 15N-labelled for NMR; also called PSD-95-PDZ3; WT-PDZ3; source: E. coli BL21/DE3, purified
Kind of assay: ITC; KKETAV (900 µM; 3 mM for D332P-PDZ3) injected into the protein in the cell (70 µM; 200 µM for D332P-PDZ3); 25°C; 50 mM potassium phosphate pH 7.5; single set of identical sites model. The settings on record: both partners purified. For orientation: In ITC the heat of successive injections is recorded.

Assay [7] has as its target T2, Δ10ct-PDZ3 (PSD-95 residues 302-393, without the α3 helix) (UniProt P31016 302-393).
T2 construct: PSD-95 third PDZ domain truncated of its ten C-terminal residues (α3 helix), residues 302-393 of the full PSD-95 protein; 15N-labelled for NMR; source: E. coli BL21/DE3, purified
The assay is described as above. The settings on record: both partners purified.

T2 sequence (P31016 302-393, stated change not applied): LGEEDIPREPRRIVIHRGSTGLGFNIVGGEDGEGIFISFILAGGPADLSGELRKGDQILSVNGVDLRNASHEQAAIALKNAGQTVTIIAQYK
T1 sequence (P31016 302-403): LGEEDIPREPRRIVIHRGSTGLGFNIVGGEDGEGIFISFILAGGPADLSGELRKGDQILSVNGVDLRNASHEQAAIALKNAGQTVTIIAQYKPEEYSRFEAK

For orientation: Kd means the constant that tells how readily two partners part at equilibrium. For the molecule “PSD-95 (DLG4/SAP-90) third PDZ domain, PDZ3, wild type”, the ΔG in assay [1] is -8 kcal/mol. Further, in assay [2], the Kd is 450 nM and the ΔG is -8.7 kcal/mol.
Consider PSD-95 PDZ3 (from UniProt P78352), for which the Kd with CRIPT (Homo sapiens) [3] was 1000 nM; with CRIPT (Homo sapiens) [4], 14000 nM; with KKETAV peptide, 450 nM; with CRIPT (Homo sapiens) [5], 3600 nM.

B1: KKETAV hexapeptide (peptide)
peptide: KKETAV
notes: residues numbered from 0 (C-terminal Val) to -5 (N-terminal Lys); also called KKETAV ligand; consensus hexapeptide; source: bought: Peptide 2.0 (USA)
The stoichiometry N is a count of units in the complex or per binding partner. B1: the “stoichiometry N” value in assay [6] turned out to be 0.99. In assay [7], the affinity, expressed as Kd, was 3600 nM; the dH was -8.8 kcal/mol; the “stoichiometry N” value was 0.9.
